Measured values as given in the nanobody polyreactivity screen of Harvey et al. (2022).

assay: yeast display, Sf9 membrane polyspecificity reagent, FACS + sequencing; frameworks hold sequencing errors
Outline: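 In a synthetic yeast display library (Saccharomyces cerevisiae BJ5465), nanobody expression was induced with galactose for 36–48 hours. FACS gates were set low and high (top ~1%) using anti-HA fluorescence for expression and streptavidin fluorescence for binding of the Sf9 membrane reagent. Each polyreactivity label is drawn from the gate of origin.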

Sequence | polyreactivity (PSR sort gate)
QVQLVDSAGVLVQAGGSLSLICAASGRTYGIYAMGWYRQAPGKERELVADISSDASTSYAYSVKGRFTISRDNAKNTVYLQMNSLKAEDTAVYYCAADPGPYYDWGYYYWGQGTQVTVSS | low polyreactivity
QVQLVESGGGLVQAGGSLRLSCAASGFTFGSNAMGWYRQAPGKERELVAAISWSGGRTYYADSVKGRFTISRDNAKNTVYLQMNILKPEDTAVFYCNKQYVKPWYRGYYYWGQGTQVTVSS | high polyreactivity
QVQLVESGGGLVQAGGSLRLSCAASGSTFVPYTMGWYRQAPGKERELVAVISSSGGNTYYADSVKGRFTISRDNAKNTVYLQMNSLKPEDTAVYYCNKDYWYPNYRRYEYWGQGTQVTVSS | low polyreactivity
QVQLVESGGGLVQAGGSLRLSCAASGSIFGINAMGWYRQAPGKERELVAGISSRGGSTYYADSVKGRFTISRDNAKNTVYLQMNSLKPEDTAVYYCAKRYGRRYGRLHDYWGQGTQVTVSS | high polyreactivity
QVQLVESGGGLVQAGGSLRLSCAASGSILQTYAMGWYRQAPGKERELVAAITWSVVSTYYADSVKGRFTISRDNAKNTVYLQMNSLKPEDTAVYYCNARSFGDPGNAYDYWGQGTQVTVSS | high polyreactivity
QVQLVESGGGLVQAGGSLRLSCAASGSTFAIYAMGWYRQAPGKERELVASISGGSTNYADSVKGRFTISRDNAKNTVYLQMNSLKPEDTAVYYCAARGALHHWYSYDYWGQGTQVTVSS | low polyreactivity
QVQLVESGGGLVQAGGSLRLSCAASGLIFDDYAMGWYRQAPGKERELVAAISLSGGSTFYADSVKGRFTISRDNAKNTVYLQMNSLKAEDTAVYYCAAQARRAYVQTRMYYWGQGTQVTVSS | high polyreactivity
QVQLVETGGGLVQAGGSLRLSCAASGFTFKLYAMGWYRQAPGKERVLVAAISSSGGRTYYADSVKGRFTISRDNAKNTVYLQMNSLKPEDTAVYYCNAVRTVNDYHYDYWGQGTQVTVSS | high polyreactivity
QVQLVESGGGLVQAGGRLRLTCAASGSIFGTYAMGWYRQAPGKERELVAAINSGDSTYYADSVKGRFTISRDNAKNTVYLQMNSLKPEDTAVYYCAAGRYWPGDYWGQGTQVTVSS | high polyreactivity
QVQLVESGGGLVQAGGSLRLSCAASGFIFRVYAMGWYRQAPGKERELVATITYDGGRTYYADSVKGRFTISRDNAKNTVYLQMNSLKPEDTAVFGYWGQGTQVTVSS | low polyreactivity
QVQLVESGGGLVQAGGSLRLSCAASGFTFYGYGMGWYRPAPGKERELVAVITSGGSTKYADSVKGRFTISRDNAKNTVYLQMNSLKPEDTAVYYCNVVGGRYLYSAYDYWGQGTQVTVSS | low polyreactivity
QVQLEVSGGGLVQAGRSLRLSCAASGSTFYGYAMGWYRQAPGKERELVAAITSSGGSTYYADSVKGRFTISRDNAKNTVYLQMNSLKPEDTAVYYCNAKRAPWGTLYNYWGQGTQVTVSS | high polyreactivity
QVQLVESGGGLVQAGGSLRLSCAASGRIVKRNAMGWYRHAPGKERELVAAISYSGGSTYYADSVKGRFTISRDNAKNTVYLEMMSLKPEDTAVYYCAVDRYPTGITKYDYWGQGTQVTVSS | high polyreactivity
QVQLVESGGCLVQAGGSLRLSCAASGYTLATYAMGWYRQAPGKERELVAAITSTGGTTYYADSVKGRFTISRDNAKNTVYLPMNSLKPEDTAVYYCNAAAALYKRYDYWGQGTQVTVSS | high polyreactivity
QVQLVESGGGLVQAGGSLRLSCSASGSTFYYNAMGWYRQAPGKERELVARISRSGGSTYADSVKGRFTISRDNAKNTVYLQMNSLKPEDTAVYYCNAIGYTGPVAYPEYDYWGQGTQVTVSS | low polyreactivity
QVQLVESGGGLVQAGGSLRLSCAASGFIFYYYAMGWYRQAPGKERELVAGITATGGSTYYEDSVKGRFTISRDNAKNTVYLQMNSLKPEDTAVYYCAAEHGRRATYTWWVIYDYWGQGTQVTVSS | low polyreactivity
QVQLVESGGGLVQAGGSLRLSCAASGSTFGRNAMGWYRQAPGKERELVATINWNGGRTYYADSVKGRFTISRDNAKNSVYLQMNSLKPEDTAVYYCNATKTGPATVRYYYWGQGTQVTVSS | high polyreactivity
QVQLVESGGGLVQAGGSLRLSCADSGSIIGINAMGWYRQAPGKERELVAANNGGGSTYYADSVKGRFTISRDNAKNSVYLQMNSLKPEDTAVYYCAAEWGTSWYDYWGQGTQVTVSS | low polyreactivity
QVQLVESGGGLVQAGGSLRLSCAASGRTFKPYAMGWYRQAPGIERELVARISGSGGSTYYADSVKGRFTISRDNGKNTVYLQLNSLKPEDTAVYYCATTPYYWFDYWGQGTQVTVSS | low polyreactivity
QVQLVESGGGLVQAGGSLRLSCAASGRTILGNAMGWYRQAPGKEREFVATISKTGGSTYYADSVKGRFTISRDNAKNTVYLQMISLKPEDTAVYYCAVEIVSYVYGWLVDYDYWGQGTQVTVSS | low polyreactivity
QVQLVESGGGLVQAGGSLRLSCAASGRIFNLYAMGWYRQAPGKERELVAAISWRGGSTYYADSVKGRFTISRDNAKNTVYLQMNSLKPEDTAVYYCAATFFTYVYRYYYWGQGTQVTVSS | high polyreactivity
QVQLVESGGGLVQAGGSLRLSCAASGRTLWSYVMGWYRQAPGKERELVAAITSGGTTYYADSVKGRFTISRDKAKNTVYLQMNSLKPEDTAVYYCAAGKYYLRLLPYGYWGQGTQVTVSS | high polyreactivity

Sequence | polyreactivity (PSR sort gate)
QVQLVESGGGLVQAGGSLRLSCAASGTFRRYPMGWYRQEPGKERELVAAITSSGGTYYADSVKGRFTISRDNAKHTVYLQMNSLKPEDTALYYCAARDYWSRYFRPGIVGWHDYWGQGTQVTVSS | high polyreactivity
QVQLVESGGGLVQAGGSLRLSCAASGRISFYYAMGWYRQAPGKERELVAAISRGGSTYYADSVKGRFTISRDNAKNTVYLQMNSLKPEDTAVYYCAATYSGVDTPSGYDYWGQGTQVTVSS | low polyreactivity
QVQLVESGRGLVQAGGSLRLSCAASGFTFGYYAMGWYRQAPGKERELVAAITSSGGTTYYADSVKGRFTISRDNAKNTVYLQMNSLKPEDTAVYYCAAEAQYYVVDPYGYDYWGQGTQVTVSS | low polyreactivity
QVQLVESGGGLVKAGGSLRLSCAASGSTFERYAMGCYRQAPGKEMELVAAINWSGGGTYYADSVKGRFTISRDNAKNTVYLQMNSLKPVDTAVYYCAADSGTVVFSLWWYEYYYWGQGTQVTVSS | low polyreactivity
QVQLVESGGGLVQAGGSLRLSCAASGLTFGWYAMGWYRQAPRKERELVAAISWSGSTTYYADSVKGRFTISRDNAKNTVYLQMNSLKPEDTAVYYCAADVSTRPYGYYYWGQGTQVTVSS | high polyreactivity
QVQLVESGGGLVQAGGSLRLSCAASGIIFTYYAMGWYRQAPGKERELVASISSSGTSTYYADSVKGRFTISRDYAKNTVYLQMNSLKPEDTAVYYCAADWTGSNGVDYWGQGTQVTVSS | low polyreactivity
QVQLVESGGGLVQAGGSLRLSCAASGFILSDNAMGWYRQAPGKEREFVAAITSSGGSTHYADSVKGRFTISRDNAKNTVYLQMNSLKPEDTAVYYCNTYPYLWGQGTQVTVSS | low polyreactivity
QVQLVESGGGLVQAGGSLRLSCAASGSTLNSYAMGLYRQAPGKDRELVAAISWSGGSTYYADSVKGRFSISRDNAKNTVYLQMNSVKAEDTAVYYCNAAFWWDYAYGVDYWGQGTQVTVSS | low polyreactivity
QVKLEESGGRLVQAGGTLRLRCAASGIIYRFYTIGWYRQAPGKERELVAAIRSGGRTYYADSVKGRFTISRDNAKNTVYLQINSLKPEDSAVYYCAKEPSRYSRYNYWGQGTQVTVSS | high polyreactivity
QVQLEESGGGLVQAGGSLRLSCAASGSTFWPYSMGWYRKATGKERELVAAITLRGGTTYYADSVKGRFTISRDNAMNTVYFQMNSLKPEDTAVYYCNADDYHYFSYDYWGQGTQVTVSS | low polyreactivity
QVQLVESGGGLVQAGGSLRLSCAASGSTFSSYAMGWYRQAPGKERELVAAISSRGGRTYYADSVKGRFTISRDNAKNTVYLQMNSLKPEDTAVYYCAVVPFTEHDYWGQGTQVTVSS | high polyreactivity
QVQHVESGGGLVQAGCSLRLSCAASGSIFWRYAMGWSRQAHGKEREFVAAISGSGVRTSYADSVKGRFTISRDNAKNTVYLQMNSLIPEDTAVYYCAARVSYRYTSAAYEYWGQGTQVTVSS | high polyreactivity
QVQLVESGGGLVQAGGSLRLSCAASGLTFIKYAMGWYRQAPGKERELVADITSSGGTTYYADSVKGRFTISRDNAKNTVYLQMNSLKPEDTAVYYCAAGTRTGMNWGQGTQVTVSS | high polyreactivity
QVQLVESGGGLVQAGGSLRLSCAASGFTLRSYTMGWYRQAPGKERELVAAITSRGTSTYYADSVKGRFTISRDNAKNTVYLQMNSLKPEDTAVYYCADPIYNGYASWQVYYWGQGTQVTVSS | high polyreactivity
QVQLVESGGGIVQAGGSLRLSCAASGSIFNIYAMGWYRQAPGKERELVAAIRWTGGSTYYADSVKGRFTISRDNAKNTVYLQMNILIPEDTAVYYCAADPWYPRGYYWGQGTQVTVSS | high polyreactivity
QVQLVDSGGGLVQAGGRLRLSCAASGRTFSVNAMGWYRQAPGKERELVAAIRWRAGSTYYADSVKGRFTISRDNAKNTVYLQMNSLKPEDTAVYYCNAVTYGGRTLFPYDYWGQGTQVTVSS | high polyreactivity
QVQLVESGGGLVQAGGSLRLSCAASGLTFSNYAMGWYRQAPGKEREFVAAISASGGSTYYAHSVKGRFTISRDYAKNTVYLQMNRLTPEDTAVYYCAASTTRPVYPANDDYWGQGTQVTVSS | low polyreactivity
QVQLVESGGGLVQAGGSLRLSCAASGFTFNRYAMGWYRQAPGKERELVAAISRGGGSTYYADSVKGRFTISRDNAKNTVYLQMNSLKPEDTAVYYCAADTRVRTCRYGFWGQGTQVNVSS | high polyreactivity
QVQLVESGGGLVQAGGSLRLSCAASGIIFTDYAMGWYRQAPGKERELVAAISSGGGSTYYADSVKGRFTNSRDYAKNTVYLQMNSLKPEDTAVYYCAAQTSGSYGFDHWGQGTQVTVSS | high polyreactivity
QVQLVESGGGLVQAGGSLRLSCAASGRIFTRYAMGWYRQAPGKERELVAVITRSGGSTYYADSVKGRFTISRDNAKNTVYLQMTSLKPEDTAVYYCAAKYYGEMYYWGQGTQVTVSS | low polyreactivity
QVQLVESGGGLVHAGGSLRLSCAASGSTYRANSMGWYRQAPGKERELVAAITRRGGSTYYADSVKGRFTISRDNAKNTVYLQMNSLKPEDTAVYYCAAASRYGEGDYWGQGTQVTVSS | high polyreactivity
